Data as given in patent publication US20140004122A1, “METHODS FOR TREATING OR PREVENTING CHOLESTEROL RELATED DISORDERS” (AMGEN INC., priority 2011, published 2014).

Experiments:
[1] = system: subjects with hypercholesterolemia on a statin; assay: 12 week dose-ranging study in combination with statin (Example 25); type: in vivo, human; conditions: preliminary
Method: Randomization will be stratified by screening LDL-C level (<130 mg/dL [3.4 mmol/L] vs≧130 mg/dL) and ezetimibe use at baseline (yes vs no). Randomization should occur within 5-10 days of the screening LDL-C evaluation used to determine eligibility. Study visits are every 2 weeks, irrespective whether the subject receives Q2W SC or Q4W treatment. […] The end-of-study visit and the last estimation of lipids is at week 12 for subjects on Q4W IP schedule and week 14 for subjects on Q2W IP schedule.
Males and females, ≧18 to ≦80 years of age, are eligible for this study. For enrollment, subjects must be on a statin, with or without ezetimibe, with stable dose(s) for at least 4 weeks before LDL-C screening and not requiring uptitration. Fasting LDL-C at screening must be ≧85 mg/dL (2.2 mmol/L). Enrollment of subjects with screening fasting LDL-C between ≧85 mg/dL (2.2 mmol/L) and <100 mg/dL (2.6 mmol/L) will be limited to no more than approximately 20% of total planned enrollment. Fasting triglycerides must be ≦400 mg/dL (4.5 mmol/L) as determined by the central laboratory analysis at screening.

[2] = target: D374Y PCSK9 binding to LDLR (Homo sapiens, UniProt Q8NBP7, D374Y); assay: Large scale receptor ligand blocking screen and functional classification of ABPs; conditions: functional assays of the screening
Method: To screen for the antibodies that block PCSK9 binding to LDLR an assay was developed using the D374Y PCSK9 mutant. […] The following protocol was employed in the receptor ligand blocking screen: Costar 3702 medium binding 384 well plates (Corning Life Sciences) were employed in the screen. The plates were coated with goat anti-LDLR (R&D Cat #AF2148) at 2 μg/ml in 1×PBS/0.05% Azide at a volume of 40 μl/well. The plates were incubated at 4° C. overnight. The plates were then washed using a Titertek plate washer (Titertek, Huntsville, Ala.). A 3-cycle wash was performed. The plates were blocked with 90 μl of 1×PBS/1% milk and incubated approximately 30 minutes at room temperature. The plates were then washed using the Titertek plate washer. A 3-cycle wash was performed. The capture sample was LDLR (R&D, Cat #2148LD/CF), and was added at 0.4 μg/ml in 1×PBS/1% milk/10 mM Ca^2+ at a volume of 40 μl/well. The plates were then incubated for 1 hour and 10 minutes at room temperature. Contemporaneously, 20 ng/ml of biotinylated human D374Y PCSK9 was incubated with 15 micro liters of hybridoma exhaust supernatant in Nunc polypropylene plates and the exhaust supernatant concentration was diluted 1:5. The plates were then pre-incubated for about 1 hour and 30 minutes at room temperature. Next, the plates were washed using the Titertek plate washer operated using a 3-cycle wash. 50 μl/well of the pre-incubated mixture was transferred onto the LDLR coated ELISA plates and incubated for 1 hour at room temperature. To detect LDLR-bound b-PCSK9, 40 μl/well streptavidin HRP at 500 ng/ml in assay diluent was added to the plates. The plates were incubated for 1 hour at room temperature. The plates were again washed using a Titertek plate washer. A 3-cycle wash was performed. Finally, 40 μl/well of One-step TMB (Neogen, Lexington, Ky.) was added to the plate and was quenched with 40 μl/well of 1N hydrochloric acid after 30 minutes at room temperature. OD's were read immediately at 450 nm using a Titertek plate reader.
The receptor ligand assay was then repeated using the mutant enzyme on the 384 member subset of neutralizers identified in the first large scale receptor ligand inhibition assay. The same protocol was employed in the screen of the 384 member blocker subset assay as was done in the large scale receptor ligand blocking screen.
Limiting dilution was used to isolate a manageable number of clones from each line. […] The isolated clones were each expanded in 50-100 ml of hybridoma media and allowed to grow to exhaustion, (i.e., less than about 10% cell viability). The concentration and potency of the antibodies to PCSK9 in the supernatants of those cultures were determined by ELISA and by in vitro functional testing, as described herein.

[3] = 70 mg (Q2W), end of the dosing interval
[4] = 105 mg (Q2W), end of the dosing interval
[5] = 280 mg (Q2W as printed), end of the dosing interval
[6] = 350 mg (Q2W as printed), end of the dosing interval

B1: 21B12: human anti-PCSK9 monoclonal antibody; light/heavy variable region SEQ ID NO 23/49 (antibody, listed as Homo sapiens, V domains shown)
VH: QVQLVQSGAEVKKPGASVKVSCKASGYTLTSYGISWVRQAPGQGLEWMGWVSFYNGNTNYAQKLQGRGTMTTDPSTSTAYMELRSLRSDDTAVYYCARGYGMDVWGQGTTVTVSS
VL: QSALTQPASVSGSPGQSITISCTGTSSDVGGYNSVSWYQQHPGKAPKLMIYEVSNRPSGVSNRFSGSKSGNTASLTISGLQAEDEADYYCNSYTSTSMVFGGGTKLTVL
- LS mean percent increase from baseline in HDL-C [1, 3]: 21.17%
- LS mean percent reduction from baseline in LDL-C [1, 3]: 39.22%
- LS mean percent reduction from baseline in Lp(a) [1, 3]: 21.17%
- LS mean percent reduction from baseline in VLDL-C [1, 3]: 14.84%
- LS mean percent reduction from baseline in non-HDL-C [1, 3]: 36.20%
- LS mean percent reduction from baseline in total cholesterol [1, 3]: 26.33%
- LS mean percent reduction from baseline in triglycerides [1, 3]: 7.20%
- LS mean percent increase from baseline in HDL-C [1, 4]: 6.80%
- LS mean percent reduction from baseline in LDL-C [1, 4]: 56.38%
- LS mean percent reduction from baseline in Lp(a) [1, 4]: 33.41%
- LS mean percent reduction from baseline in VLDL-C [1, 4]: 12.75%
- LS mean percent reduction from baseline in non-HDL-C [1, 4]: 51.20%
- LS mean percent reduction from baseline in total cholesterol [1, 4]: 36.91%
- LS mean percent reduction from baseline in triglycerides [1, 4]: 5.65%
- LS mean percent increase from baseline in HDL-C ([1]; 140 mg (Q2W)): 8.43%
- LS mean percent reduction from baseline in LDL-C ([1]; 140 mg (Q2W)): 68.76%
- LS mean percent reduction from baseline in Lp(a) ([1]; 140 mg (Q2W)): 33.87%
- LS mean percent reduction from baseline in VLDL-C ([1]; 140 mg (Q2W)): 45.14%
- LS mean percent reduction from baseline in non-HDL-C ([1]; 140 mg (Q2W)): 64.61%
- LS mean percent reduction from baseline in total cholesterol ([1]; 140 mg (Q2W)): 46.17%
- LS mean percent reduction from baseline in triglycerides ([1]; 140 mg (Q2W)): 17.60%
- LS mean percent increase from baseline in HDL-C [1, 5]: 2.17%
- LS mean percent reduction from baseline in Lp(a) [1, 5]: 22.54%
- LS mean percent reduction from baseline in VLDL-C [1, 5]: 18.12%
- LS mean percent reduction from baseline in non-HDL-C [1, 5]: 38.89%
- LS mean percent reduction from baseline in total cholesterol [1, 5]: 28.08%
- LS mean percent reduction from baseline in triglycerides [1, 5]: 6.75%
- LS mean percent reduction from baseline in LDL-C ([1]; 280 mg (Q4W), end of the dosing interval): 42.62%
- LS mean percent increase from baseline in HDL-C [1, 6]: 6.92%
- LS mean percent reduction from baseline in Lp(a) [1, 6]: 29.43%
- LS mean percent reduction from baseline in VLDL-C [1, 6]: 20.89%
- LS mean percent reduction from baseline in non-HDL-C [1, 6]: 50.83%
- LS mean percent reduction from baseline in total cholesterol [1, 6]: 36.04%
- LS mean percent reduction from baseline in triglycerides [1, 6]: 9.17%
- LS mean percent reduction from baseline in LDL-C ([1]; 350 mg, end of the dosing interval): 56.84%
- LS mean percent increase from baseline in HDL-C ([1]; 420 mg (Q2W as printed)): 7.42%
- LS mean percent reduction from baseline in Lp(a) ([1]; 420 mg (Q2W as printed)): 23.29%
- LS mean percent reduction from baseline in VLDL-C ([1]; 420 mg (Q2W as printed)): 28.66%
- LS mean percent reduction from baseline in non-HDL-C ([1]; 420 mg (Q2W as printed)): 48.54%
- LS mean percent reduction from baseline in total cholesterol ([1]; 420 mg (Q2W as printed)): 42.76%
- LS mean percent reduction from baseline in triglycerides ([1]; 420 mg (Q2W as printed)): 11.13%
- LS mean percent reduction from baseline in LDL-C ([1]; 420 mg): 52.19%
- neutralizing ability (blocking PCSK9/LDLR) [2]: neutralizing
